In paper PMC6499326 (Genes & Development, 2019):
Blank lines part the entries; values can stand above or below the binder they belong to.

Key:
[1] = target: T1, His-NRDE2^111–1164 (human, UniProt Q9H7Z3 111-1164); experiment: pull-down
T1 sequence: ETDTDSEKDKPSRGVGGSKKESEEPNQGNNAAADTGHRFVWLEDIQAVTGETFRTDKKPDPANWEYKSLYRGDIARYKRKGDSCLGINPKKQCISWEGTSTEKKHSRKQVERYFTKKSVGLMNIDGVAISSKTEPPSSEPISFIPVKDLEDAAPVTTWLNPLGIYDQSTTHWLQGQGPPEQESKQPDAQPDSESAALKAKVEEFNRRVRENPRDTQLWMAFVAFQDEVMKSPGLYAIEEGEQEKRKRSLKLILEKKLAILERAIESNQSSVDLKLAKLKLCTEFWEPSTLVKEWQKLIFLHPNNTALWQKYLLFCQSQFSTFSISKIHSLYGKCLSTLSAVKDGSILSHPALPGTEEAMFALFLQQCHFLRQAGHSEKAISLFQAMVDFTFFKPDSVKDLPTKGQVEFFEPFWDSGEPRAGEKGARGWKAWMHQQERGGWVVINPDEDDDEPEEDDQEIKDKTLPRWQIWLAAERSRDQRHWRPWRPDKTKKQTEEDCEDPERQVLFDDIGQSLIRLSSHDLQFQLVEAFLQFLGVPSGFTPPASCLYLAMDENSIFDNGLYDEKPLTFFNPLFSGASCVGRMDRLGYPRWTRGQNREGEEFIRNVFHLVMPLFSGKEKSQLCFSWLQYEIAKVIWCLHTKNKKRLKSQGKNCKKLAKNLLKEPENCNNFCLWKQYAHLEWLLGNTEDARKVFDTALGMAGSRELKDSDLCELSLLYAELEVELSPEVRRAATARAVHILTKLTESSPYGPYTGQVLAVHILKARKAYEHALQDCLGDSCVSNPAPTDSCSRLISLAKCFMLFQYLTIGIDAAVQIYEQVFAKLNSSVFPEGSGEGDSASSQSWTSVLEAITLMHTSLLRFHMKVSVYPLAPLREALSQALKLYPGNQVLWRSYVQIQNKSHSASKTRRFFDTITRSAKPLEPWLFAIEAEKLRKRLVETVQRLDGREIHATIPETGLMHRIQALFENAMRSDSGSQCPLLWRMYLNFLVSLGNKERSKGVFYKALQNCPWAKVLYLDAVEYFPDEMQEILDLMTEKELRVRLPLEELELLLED

[2] = target: T2, MTR4;NRDE2 MID (Homo sapiens;Homo sapiens, UniProt P42285;Q9H7Z3 71-1042;163-266, |); experiment: EMSA
T2 sequence 1: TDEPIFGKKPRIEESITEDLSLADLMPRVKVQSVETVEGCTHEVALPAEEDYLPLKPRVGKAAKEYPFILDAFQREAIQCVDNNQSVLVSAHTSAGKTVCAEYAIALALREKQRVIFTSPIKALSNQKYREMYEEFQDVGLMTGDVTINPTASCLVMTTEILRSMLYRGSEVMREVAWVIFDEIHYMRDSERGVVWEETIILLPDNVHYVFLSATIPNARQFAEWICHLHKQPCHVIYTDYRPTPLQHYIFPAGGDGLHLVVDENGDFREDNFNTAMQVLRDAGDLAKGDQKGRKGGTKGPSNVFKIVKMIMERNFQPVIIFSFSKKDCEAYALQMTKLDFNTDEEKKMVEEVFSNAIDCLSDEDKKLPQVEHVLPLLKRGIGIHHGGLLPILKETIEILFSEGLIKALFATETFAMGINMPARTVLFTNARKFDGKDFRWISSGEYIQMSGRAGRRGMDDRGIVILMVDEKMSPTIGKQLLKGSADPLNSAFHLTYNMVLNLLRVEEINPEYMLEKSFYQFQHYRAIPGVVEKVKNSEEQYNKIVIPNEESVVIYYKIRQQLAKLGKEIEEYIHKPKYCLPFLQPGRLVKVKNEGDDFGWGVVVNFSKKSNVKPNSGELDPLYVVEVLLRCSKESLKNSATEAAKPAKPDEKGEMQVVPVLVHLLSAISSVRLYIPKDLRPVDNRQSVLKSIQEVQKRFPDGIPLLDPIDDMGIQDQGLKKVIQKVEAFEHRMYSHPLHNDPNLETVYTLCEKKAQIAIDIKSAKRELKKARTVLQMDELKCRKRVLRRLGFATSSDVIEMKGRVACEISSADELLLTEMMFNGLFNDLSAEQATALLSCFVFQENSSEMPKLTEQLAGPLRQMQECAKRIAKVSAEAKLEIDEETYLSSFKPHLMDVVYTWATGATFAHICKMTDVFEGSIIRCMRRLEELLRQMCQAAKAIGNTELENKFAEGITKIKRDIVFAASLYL
T2 sequence 2: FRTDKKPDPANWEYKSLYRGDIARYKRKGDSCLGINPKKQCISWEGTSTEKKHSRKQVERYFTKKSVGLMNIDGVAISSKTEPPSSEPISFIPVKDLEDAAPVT

[3] = target: T3, His-MTR4^71–1042 (human, UniProt P42285 71-1042); experiment: SEC
T3 sequence: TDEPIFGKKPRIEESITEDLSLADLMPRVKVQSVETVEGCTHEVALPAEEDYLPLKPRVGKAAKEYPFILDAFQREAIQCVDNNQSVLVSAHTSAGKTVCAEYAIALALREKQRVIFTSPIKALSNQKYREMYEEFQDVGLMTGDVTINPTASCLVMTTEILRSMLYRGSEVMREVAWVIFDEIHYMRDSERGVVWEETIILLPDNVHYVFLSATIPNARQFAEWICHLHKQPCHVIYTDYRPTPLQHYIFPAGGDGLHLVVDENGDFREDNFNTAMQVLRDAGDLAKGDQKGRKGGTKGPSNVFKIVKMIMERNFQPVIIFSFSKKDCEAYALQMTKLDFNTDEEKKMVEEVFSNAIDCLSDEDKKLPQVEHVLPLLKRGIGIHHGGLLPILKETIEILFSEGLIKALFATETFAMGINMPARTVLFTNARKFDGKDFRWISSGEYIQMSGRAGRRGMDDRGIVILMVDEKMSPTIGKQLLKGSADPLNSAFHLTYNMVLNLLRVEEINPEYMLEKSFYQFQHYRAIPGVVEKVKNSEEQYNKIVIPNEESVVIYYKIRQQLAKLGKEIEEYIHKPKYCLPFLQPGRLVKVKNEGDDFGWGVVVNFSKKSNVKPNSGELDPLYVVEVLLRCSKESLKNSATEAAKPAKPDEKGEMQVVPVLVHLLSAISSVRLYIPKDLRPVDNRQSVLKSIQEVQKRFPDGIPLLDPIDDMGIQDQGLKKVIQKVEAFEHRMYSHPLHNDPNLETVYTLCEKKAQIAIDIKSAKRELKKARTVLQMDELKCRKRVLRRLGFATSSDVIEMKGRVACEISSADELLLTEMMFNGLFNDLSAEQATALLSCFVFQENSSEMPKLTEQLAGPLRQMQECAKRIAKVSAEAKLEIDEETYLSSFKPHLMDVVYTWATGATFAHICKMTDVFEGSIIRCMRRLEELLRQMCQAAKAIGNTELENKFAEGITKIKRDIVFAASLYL

- binding result [1]: binds
B1: MBP-MTR4^FL (natural protein)
chain: MADAFGDELFSVFEGDSTTAAGTKKDKEKDKGKWKGPPGSADKAGKRFDGKLQSESTNNGKNKRDVDFEGTDEPIFGKKPRIEESITEDLSLADLMPRVKVQSVETVEGCTHEVALPAEEDYLPLKPRVGKAAKEYPFILDAFQREAIQCVDNNQSVLVSAHTSAGKTVCAEYAIALALREKQRVIFTSPIKALSNQKYREMYEEFQDVGLMTGDVTINPTASCLVMTTEILRSMLYRGSEVMREVAWVIFDEIHYMRDSERGVVWEETIILLPDNVHYVFLSATIPNARQFAEWICHLHKQPCHVIYTDYRPTPLQHYIFPAGGDGLHLVVDENGDFREDNFNTAMQVLRDAGDLAKGDQKGRKGGTKGPSNVFKIVKMIMERNFQPVIIFSFSKKDCEAYALQMTKLDFNTDEEKKMVEEVFSNAIDCLSDEDKKLPQVEHVLPLLKRGIGIHHGGLLPILKETIEILFSEGLIKALFATETFAMGINMPARTVLFTNARKFDGKDFRWISSGEYIQMSGRAGRRGMDDRGIVILMVDEKMSPTIGKQLLKGSADPLNSAFHLTYNMVLNLLRVEEINPEYMLEKSFYQFQHYRAIPGVVEKVKNSEEQYNKIVIPNEESVVIYYKIRQQLAKLGKEIEEYIHKPKYCLPFLQPGRLVKVKNEGDDFGWGVVVNFSKKSNVKPNSGELDPLYVVEVLLRCSKESLKNSATEAAKPAKPDEKGEMQVVPVLVHLLSAISSVRLYIPKDLRPVDNRQSVLKSIQEVQKRFPDGIPLLDPIDDMGIQDQGLKKVIQKVEAFEHRMYSHPLHNDPNLETVYTLCEKKAQIAIDIKSAKRELKKARTVLQMDELKCRKRVLRRLGFATSSDVIEMKGRVACEISSADELLLTEMMFNGLFNDLSAEQATALLSCFVFQENSSEMPKLTEQLAGPLRQMQECAKRIAKVSAEAKLEIDEETYLSSFKPHLMDVVYTWATGATFAHICKMTDVFEGSIIRCMRRLEELLRQMCQAAKAIGNTELENKFAEGITKIKRDIVFAASLYL

B2: 5' FAM RNA (EMSA) (ssRNA)
RNA: UGUCUGACUGAAGGACCAGGUGCUGUCUGA
- binding signal [2]: ~8 fold higher affinity than MTR4 alone

- stoichiometry N [3]: 1
B3: untagged NRDE2^111–1164 (domain or fragment)
chain: ETDTDSEKDKPSRGVGGSKKESEEPNQGNNAAADTGHRFVWLEDIQAVTGETFRTDKKPDPANWEYKSLYRGDIARYKRKGDSCLGINPKKQCISWEGTSTEKKHSRKQVERYFTKKSVGLMNIDGVAISSKTEPPSSEPISFIPVKDLEDAAPVTTWLNPLGIYDQSTTHWLQGQGPPEQESKQPDAQPDSESAALKAKVEEFNRRVRENPRDTQLWMAFVAFQDEVMKSPGLYAIEEGEQEKRKRSLKLILEKKLAILERAIESNQSSVDLKLAKLKLCTEFWEPSTLVKEWQKLIFLHPNNTALWQKYLLFCQSQFSTFSISKIHSLYGKCLSTLSAVKDGSILSHPALPGTEEAMFALFLQQCHFLRQAGHSEKAISLFQAMVDFTFFKPDSVKDLPTKGQVEFFEPFWDSGEPRAGEKGARGWKAWMHQQERGGWVVINPDEDDDEPEEDDQEIKDKTLPRWQIWLAAERSRDQRHWRPWRPDKTKKQTEEDCEDPERQVLFDDIGQSLIRLSSHDLQFQLVEAFLQFLGVPSGFTPPASCLYLAMDENSIFDNGLYDEKPLTFFNPLFSGASCVGRMDRLGYPRWTRGQNREGEEFIRNVFHLVMPLFSGKEKSQLCFSWLQYEIAKVIWCLHTKNKKRLKSQGKNCKKLAKNLLKEPENCNNFCLWKQYAHLEWLLGNTEDARKVFDTALGMAGSRELKDSDLCELSLLYAELEVELSPEVRRAATARAVHILTKLTESSPYGPYTGQVLAVHILKARKAYEHALQDCLGDSCVSNPAPTDSCSRLISLAKCFMLFQYLTIGIDAAVQIYEQVFAKLNSSVFPEGSGEGDSASSQSWTSVLEAITLMHTSLLRFHMKVSVYPLAPLREALSQALKLYPGNQVLWRSYVQIQNKSHSASKTRRFFDTITRSAKPLEPWLFAIEAEKLRKRLVETVQRLDGREIHATIPETGLMHRIQALFENAMRSDSGSQCPLLWRMYLNFLVSLGNKERSKGVFYKALQNCPWAKVLYLDAVEYFPDEMQEILDLMTEKELRVRLPLEELELLLED
